Experiments:
Assay type in all cases: cell-based, human
[1] = tested on: PBMC cells obtained from mite allergic patients and non-allergics; test: Ex vivo stimulation of PBMC: cytokine production (IFN-gamma, IL-9, IL-10, IL-17, IL-31)
How it was run: (§1)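 Freshly isolated PBMC (5×10^6/ml) from mite-allergic patients or non-allergics cultured 5 days with test protein up to 10 ug/ml; IFN-gamma, IL-9, IL-10, IL-17, IL-31 in supernatants by multiplex immunoassay. T cell lines, raised 3 weeks on HDM extract, tested at 0.5 or 2 ug/ml protein in 72 h proliferation assay.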

[2] = tested on: basophils in whole blood from HDM allergic donors; test: Basophil Activation Test (BAT); details: blood from HDM allergic individuals (n=14)
How it was run: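 Whole blood from HDM-allergic donors (n=14) was stimulated for 1 h with test proteins across a concentration range, e.g. 1, 10, 100 or 1000 ng/ml. Basophil surface activation markers were measured by flow cytometry, with Der p 1 and Der p 2 tested at the same concentrations as controls.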

[3] = tested on: T cell lines obtained from HDM allergic individuals and non-allergics; test: In vitro T cell proliferation test in T cell lines (Example 3); details: 0.5 or 2 ug/ml, 72 h; for % responders of in-vitro T cell proliferation test, Allergic: T cell lines from HDM allergic individuals (n=30); for % responders of in-vitro T cell proliferation test, Non-allergics: T cell lines from non-allergics (n=8)
How it was run: as §1

Row | Molecule | % HDM allergic individuals with cytokine production in ex-vivo T cell assay IL-5 [1] [%] | % HDM allergic individuals with cytokine production in ex-vivo T cell assay IL-9 [1] [%] | % HDM allergic individuals with cytokine production in ex-vivo T cell assay IL-10 [1] [%] | % HDM allergic individuals with cytokine production in ex-vivo T cell assay IL-13 [1] [%] | % HDM allergic individuals with cytokine production in ex-vivo T cell assay IL-17 [1] [%] | % HDM allergic individuals with cytokine production in ex-vivo T cell assay IL-31 [1] [%] | % HDM allergic individuals with cytokine production in ex-vivo T cell assay INF-g [1] [%] | % non-allergic individuals with cytokine production in ex-vivo T cell assay IL-5 [1] [%] | % non-allergic individuals with cytokine production in ex-vivo T cell assay IL-9 [1] [%] | % non-allergic individuals with cytokine production in ex-vivo T cell assay IL-10 [1] [%] | % non-allergic individuals with cytokine production in ex-vivo T cell assay IL-13 [1] [%] | % non-allergic individuals with cytokine production in ex-vivo T cell assay IL-17 [1] [%] | % non-allergic individuals with cytokine production in ex-vivo T cell assay IL-31 [1] [%] | % non-allergic individuals with cytokine production in ex-vivo T cell assay INF-g [1] [%] | # of individuals of 14 with positive BAT test ([2]; 1 ng/ml) | # of individuals of 14 with positive BAT test ([2]; 10 ng/ml) | # of individuals of 14 with positive BAT test ([2]; 100 ng/ml) | # of individuals of 14 with positive BAT test ([2]; 1000 ng/ml) | % responders of in-vitro T cell proliferation test, Allergic [3] [%] | % responders of in-vitro T cell proliferation test, Non-allergics [3] [%]
1 | A022: house dust mite protein; SEQ ID NO: 19 (Der f), 20 (Der p), 317 (Blo t) (protein) NWQMVWQDEFNGGHLDQNHWEFETGGGGWGNNELEFYTANRSQNVRVENGHLVIDVRVESYGGRDFTSGRIHSKQAWAYGKFEARARLPSGHHLWPAIWMFPRDSKYGPWAASGEIDIMEYRGDVHDKIEGTIHYGGQWPNNIYTGSGPHHFNVDFSKDFHNFAVEWDTKEIRWYMDGNKYFSVNIDRNMWSGKGNNPYNKNGQPFDQPFRWILNVAVGGNFFGPGPYVTPDQARHWQKHTMEIDYVRVYQWR | 31 | 6 | 6 | 13 | 0 | 0 | 0 | 0 | 0 | 0 | 0 | 0 | 0 | 17 | 0 | 0 | 3 | 5 | 29 | 0
2 | A024: house dust mite protein; SEQ ID NO: 11 (Der f), 12 (Der p), 318 (Blo t) (protein) MSISAHGGGLVNGIAGMENKFTVFTSGKPVSGLTVAFEGPTKPEINFNSTKDGSVDVGYIPKAGGQYKIHIKYEGKEIVGSPFKCNISGDESTHRKLTEKVKVGGPNISTGKVNQDNQLTIDCKEAGITGGISFAMEGPAKVEVSFRNNNDGTITVIYKPPTPGDYKLHLKFNDIHLPGSPYPIVVSA | 13 | 6 | 25 | 6 | 6 | 0 | 0 | 0 | 0 | 17 | 0 | 0 | 0 | 0 | 2 | 2 | 3 | 3 | 21 | 0
3 | A023: house dust mite protein; SEQ ID NO: 23 (Der f), 24 (Der p) (protein) DPVQQRPTLRGVTVRVGPFVKENNGKFEGFIPDLVQAISEKVGFDYTLYLSPDGRYGNVISDGNVTGMIGEVYNKKADFAAADLTMTEARENYITFTEPFMINQLAALIRREDAEGLNTLEDLAKAQETFPKRKRIVLGTLRNGATNYFLSKSDDPLAKKIYEQIKADDQSVVKSISEGVERVDKQGGYAFIMESASAEHEIANNCKLTMLLDWRNLFPRKYAFALPKDSPYLEHFNNAIKQLNSEGKIAELRRKYWANNCAENKTKDDKN | 13 | 13 | 6 | 13 | 0 | 0 | 0 | 0 | 0 | 0 | 0 | 0 | 0 | 0 | 1 | 1 | 1 | 1 | 21 | 0
4 | A025: house dust mite protein; SEQ ID NO: 17 (Der f), 18 (Der p) (protein) QSLFVDYNDYSCGSSQNETNELIQEFKIFKKNINGNENFKKINDFIEKARLFRDNAAKQMLEIDQQLLTLNVIQISQRIKLENNKIQCEKLTKFSELLSMQLLAYEVGMFEFAEEIDPNIDFDRKMKNFLDETSRLFNLAEFEKLEKKFRNATSIEKLKNYIDGELVALNDYINEFLKDIIMSEFTVQSRYYLNFSIEDQVQIDSTLMTFSALKILLNDLKDYLEHLDN | 13 | 6 | 6 | 13 | 0 | 0 | 0 | 0 | 0 | 0 | 0 | 0 | 0 | 0 | 1 | 1 | 1 | 5 | 0 | 0
5 | Derf1: major house dust mite allergen, group 1, Dermatophagoides farinae; control (protein, UniProt P16311 99-321, looked up) Peptidase 1: TSACRINSVNVPSELDLRSLRTVTPIRMQGGCGSCWAFSGVAATESAYLAYRNTSLDLSEQELVDCASQHGCHGDTIPRGIEYIQQNGVVEERSYPYVAREQRCRRPNSQHYGISNYCQIYPPDVKQIREALTQTHTAIAVIIGIKDLRAFQHYDGRTIIQHDNGYQPNYHAVNIVGYGSTQGDDYWIVRNSWDTTWGDSGYGYFQAGNNLMMIEQYPYVVIM | 75 | 19 | 50 | 56 | 6 | 0 | 0 | 0 | 0 | 33 | 0 | 17 | 0 | 0 | 10 | 10 | 10 | 10 | 70 | 0
